Reference: patent US20240301049A1 (Ablynx, published 2024)

T1: cyno IL-6 (cynomolgus monkey, UniProt P79341 28-212, limits assumed)
T1 sequence (looked up): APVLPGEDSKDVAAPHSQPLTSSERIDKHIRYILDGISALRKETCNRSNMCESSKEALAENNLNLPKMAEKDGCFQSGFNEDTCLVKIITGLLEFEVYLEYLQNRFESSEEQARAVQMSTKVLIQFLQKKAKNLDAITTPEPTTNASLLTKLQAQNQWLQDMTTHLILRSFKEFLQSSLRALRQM


Legend:
Test in all cases: cell-based or functional assay
cyno IL-6 [1] = biological target: T1, cyno IL-6
human IL-6 [2] = biological target: T2, human IL-6 (human, UniProt P05231 30-212)
human TNF-α [3] = biological target: T3, human TNF-α (human, UniProt P01375 77-233)
T3 sequence (P01375 77-233 limits assumed): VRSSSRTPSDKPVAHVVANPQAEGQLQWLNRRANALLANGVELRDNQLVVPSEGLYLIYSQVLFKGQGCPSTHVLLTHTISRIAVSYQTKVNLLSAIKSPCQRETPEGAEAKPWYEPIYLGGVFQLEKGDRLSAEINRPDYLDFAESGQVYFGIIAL

cyno TNF-α [4] = biological target: T4, cyno TNF-α (cynomolgus monkey, UniProt P79337 77-233)
T4 sequence (P79337 77-233 limits assumed): as the sequence (P01375 77-233 limits assumed) above, with L37V, R44T, T72N, R138L counted along it

cyno IL-6 [5] = biological target: T1, cyno IL-6; remark: listed apart in the source
human IL-6 [6] = biological target: T2, human IL-6; remark: listed apart in the source
human TNF-α [7] = biological target: T3, human TNF-α; remark: listed apart in the source
cyno TNF-α [8] = biological target: T4, cyno TNF-α; remark: listed apart in the source

| cyno IL-6 TF1 proliferation assay (IC50, pM) (cyno IL-6 [1]) | Ratio IC50 reference anti-IL-6 mAb1/Nb (human IL-6 [2]) | hIL-6 TF1 proliferation assay (IC50, pM) (human IL-6 [2]) | Ratio IC50 reference anti-TNF-α mAb/Nb (human TNF-α [3]) | hTNF-α Nfkb assay (IC50, pM) (human TNF-α [3]) | cyno TNF-α NFkb assay (IC50, pM) (cyno TNF-α [4]) | Ratio IC50 cyno IL-6/hIL-6 (cyno IL-6 [5]) | IC50 hIL-6 TF1 proliferation assay (human IL-6 [6]) | IC50 hTNF-α Nfkb assay (human TNF-α [7]) | Ratio IC50 cyno TNFα/hTNFα (cyno TNF-α [8]) | Binder |
| --- | --- | --- | --- | --- | --- | --- | --- | --- | --- | --- |
| 49 pM | 2.3 ratio | 127 pM | 0.67 ratio | 100 pM | 176 pM | 0.4 ratio | 0.127 nM | 0.0999 nM | 1.8 ratio | F027201060 (bispecific antibody) EVQLVESGGGVVQPGGSLRLSCAASGFTLAYYAIGWFRQAPGKEREGVSCISGSVGTTYYADSVKGRFTISRDNAKNTVYLQMNSLRPEDTALYYCVRSSWFDCGVQGRDLGNEYDYRGQGTLVTVSSGGGGSGGGSEVQLVESGGGVVQPGGSLRLSCAASGFTFRSFGMSWVRQAPGKGPEWVSSISGSGSDTLYADSVKGRFTISRDNSKNTLYLQMNSLRPEDTALYYCTIGGSLSRSSQGTLVTVSSGGGGSGGGSEVQLVESGGGVVQPGGSLRLSCAASGFSLDYYGVGWFRQAPGKEREGVSCISSSEGDTYYADSVKGRFTISRDNAKNTVYLQMNSLRPEDTALYYCATDLSDYGVCSRWPSPYDYWGQGTLVKVSSGGGGSGGGSEVQLVESGGGVVQPGGSLRLSCTASGFTFSTADMGWFRQAPGKGREFVARISGIDGTTYYDEPVKGRFTISRDNSKNTVYLQMNSLRPEDTALYYCRSPRYADQWSAYDYWGQGTLVKVSS |
| 1710 pM | 14.8 ratio | 610 pM | 1.43 ratio | 64 pM | 265 pM | 2.8 ratio | 0.61 nM | 0.0643 nM | 4.1 ratio | F027200925 (bispecific antibody) DVQLVESGGGVVQPGGSLRLSCTASGFTFSTADMGWFRQAPGKGREFVARISGIDGTTYYDEPVKGRFTISRDNSKNTVYLQMNSLRPEDTALYYCRSPRYADQWSAYDYWGQGTLVTVSSGGGGSGGGSEVQLVESGGGVVQPGGSLRLSCAASGIIFSINAMGWYRQAPGKQRELVADIFPFGSTEYADSVKGRFTISRDNAKNTVYLQMNSLRPEDTALYYCHSYDPRGDDYWGQGTLVTVSSGGGGSGGGSEVQLVESGGGVVQPGGSLRLSCAASGFTFRSFGMSWVRQAPGKGPEWVSSISGSGSDTLYADSVKGRFTISRDNSKNTLYLQMNSLRPEDTALYYCTIGGSLSRSSQGTLVTVSSGGGGSGGGSEVQLVESGGGVVQPGGSLRLSCAASGRTFSSYVMGWFRQAPGKEREFVSTINWAGSRGYYADSVKGRFTISRDNAKNTVYLQMNSLRPEDTALYYCAASAGGFLVPRVGQGYDYWGQGTLVKVSSA |
|  |  |  |  |  |  | 1 ratio | 0.0738 nM | 0.0858 nM | 3.2 ratio | F027200929 (bispecific antibody) EVQLVESGGGVVQPGGSLRLSCAASGRTFSSYVMGWFRQAPGKEREFVSTINWAGSRGYYADSVKGRFTISRDNAKNTVYLQMNSLRPEDTALYYCAASAGGFLVPRVGQGYDYWGQGTLVTVSSGGGGSGGGSEVQLVESGGGVVQPGGSLRLSCAASGFTFRSFGMSWVRQAPGKGPEWVSSISGSGSDTLYADSVKGRFTISRDNSKNTLYLQMNSLRPEDTALYYCTIGGSLSRSSQGTLVTVSSGGGGSGGGSEVQLVESGGGVVQPGGSLRLSCAASGFSLDYYGVGWFRQAPGKEREGVSCISSSEGDTYYADSVKGRFTISRDNAKNTVYLQMNSLRPEDTALYYCATDLSDYGVCSRWPSPYDYWGQGTLVKVSSGGGGSGGGSEVQLVESGGGVVQPGGSLRLSCTASGFTFSTADMGWFRQAPGKGREFVARISGIDGTTYYDEPVKGRFTISRDNSKNTVYLQMNSLRPEDTALYYCRSPRYADQWSAYDYWGQGTLVKVSS |
| 209 pM | 5.3 ratio | 347 pM | 0.83 ratio | 69 pM | 139 pM | 0.6 ratio | 0.347 nM | 0.0685 nM | 2 ratio | F027201029 (bispecific antibody) EVQLVESGGGVVQPGGSLRLSCTASGFTFSTADMGWFRQAPGKGREFVARISGIDGTTYYDEPVKGRFTISRDNSKNTVYLQMNSLRPEDTALYYCRSPRYADQWSAYDYWGQGTLVKVSSGGGGSGGGSDVQLVESGGGVVQPGGSLRLSCAASGRTFSNYAMAWFRQAPGKEREFVAVISYAGGRTYYADSVKGRFTISRDNAKNTVYLQMNSLRPEDTALYYCAAVDSPLIATHPRGYDYWGQGTLVTVSSGGGGSGGGSEVQLVESGGGVVQPGGSLRLSCAASGFTFRSFGMSWVRQAPGKGPEWVSSISGSGSDTLYADSVKGRFTISRDNSKNTLYLQMNSLRPEDTALYYCTIGGSLSRSSQGTLVTVSSGGGGSGGGSEVQLVESGGGVVQPGGSLRLSCAASGIIFSINAMGWYRQAPGKQRELVADIFPFGSTEYADSVKGRFTISRDNAKNTVYLQMNSLRPEDTALYYCHSYDPRGDDYWGQGTLVTVSS |
| 54 pM | 1.7 ratio | 72 pM | 0.62 ratio | 206 pM | 360 pM | 0.7 ratio | 0.072 nM | 0.206 nM | 1.7 ratio | F027200812 (bispecific antibody) DVQLVESGGGVVQPGGSLRLSCAASGRTFSNYAMAWFRQAPGKEREFVAVISYAGGRTYYADSVKGRFTISRDNAKNTVYLQMNSLRPEDTALYYCAAVDSPLIATHPRGYDYWGQGTLVTVSSGGGGSGGGSEVQLVESGGGVVQPGGSLRLSCAASGFTFRSFGMSWVRQAPGKGPEWVSSISGSGSDTLYADSVKGRFTISRDNSKNTLYLQMNSLRPEDTALYYCTIGGSLSRSSQGTLVTVSSGGGGSGGGSEVQLVESGGGVVQPGGSLRLSCAASGFSLDYYGVGWFRQAPGKEREGVSCISSSEGDTYYADSVKGRFTISRDNAKNTVYLQMNSLRPEDTALYYCATDLSDYGVCSRWPSPYDYWGQGTLVKVSSGGGGSGGGSEVQLVESGGGVVQPGGSLRLSCTASGFTFSTADMGWFRQAPGKGREFVARISGIDGTTYYDEPVKGRFTISRDNSKNTVYLQMNSLRPEDTALYYCRSPRYADQWSAYDYWGQGTLVKVSS |

Second part, the binder before the results:

| Binder | cyno IL-6 TF1 proliferation assay (IC50, pM) (cyno IL-6 [1]) | Ratio IC50 reference anti-IL-6 mAb1/Nb (human IL-6 [2]) | hIL-6 TF1 proliferation assay (IC50, pM) (human IL-6 [2]) | Ratio IC50 reference anti-TNF-α mAb/Nb (human TNF-α [3]) | hTNF-α Nfkb assay (IC50, pM) (human TNF-α [3]) | cyno TNF-α NFkb assay (IC50, pM) (cyno TNF-α [4]) | Ratio IC50 cyno IL-6/hIL-6 (cyno IL-6 [5]) | IC50 hIL-6 TF1 proliferation assay (human IL-6 [6]) | IC50 hTNF-α Nfkb assay (human TNF-α [7]) | Ratio IC50 cyno TNFα/hTNFα (cyno TNF-α [8]) |
| --- | --- | --- | --- | --- | --- | --- | --- | --- | --- | --- |
| F027200157 (bispecific antibody) EVQLVESGGGVVQPGGSLRLSCTASGFTFSTADMGWFRQAPGKGREFVARISGIDGTTYYDEPVKGRFTISRDNSKNTVYLQMNSLRPEDTALYYCRSPRYADQWSAYDYWGQGTLVKVSSGGGGSGGGSEVQLVESGGGVVQPGGSLRLSCAASGFTFRSFGMSWVRQAPGKGPEWVSSISGSGSDTLYADSVKGRFTISRDNSKNTLYLQMNSLRPEDTALYYCTIGGSLSRSSQGTLVTVSSGGGGSGGGSEVQLVESGGGVVQPGGSLRLSCAASGIIFSINAMGWYRQAPGKQRELVADIFPFGSTEYADSVKGRFTISRDNAKNTVYLQMNSLRPEDTALYYCHSYDPRGDDYWGQGTLVTVSSGGGGSGGGSEVQLVESGGGVVQPGGSLRLSCAASGFTLAYYAIGWFRQAPGKEREGVSCISGSVGTTYYADSVKGRFTISRDNAKNTVYLQMNSLRPEDTALYYCVRSSWFDCGVQGRDLGNEYDYRGQGTLVTVSS |  |  |  |  |  |  | 7.1 ratio | 3.33 nM | 0.124 nM | 4 ratio |
| F027200809 (bispecific antibody) EVQLVESGGGVVQPGGSLRLSCTASGFTFSTADMGWFRQAPGKGREFVARISGIDGTTYYDEPVKGRFTISRDNSKNTVYLQMNSLRPEDTALYYCRSPRYADQWSAYDYWGQGTLVKVSSGGGGSGGGSDVQLVESGGGVVQPGGSLRLSCAASGRTFSNYAMAWFRQAPGKEREFVAVISYAGGRTYYADSVKGRFTISRDNAKNTVYLQMNSLRPEDTALYYCAAVDSPLIATHPRGYDYWGQGTLVTVSSGGGGSGGGSEVQLVESGGGVVQPGGSLRLSCAASGFTFRSFGMSWVRQAPGKGPEWVSSISGSGSDTLYADSVKGRFTISRDNSKNTLYLQMNSLRPEDTALYYCTIGGSLSRSSQGTLVTVSSGGGGSGGGSEVQLVESGGGVVQPGGSLRLSCAASGFSLDYYGVGWFRQAPGKEREGVSCISSSEGDTYYADSVKGRFTISRDNAKNTVYLQMNSLRPEDTALYYCATDLSDYGVCSRWPSPYDYWGQGTLVKVSS | 61 pM | 1.7 ratio | 68 pM | 0.91 ratio | 141 pM | 329 pM | 0.9 ratio | 0.0682 nM | 0.141 nM | 2.3 ratio |
| F027200166 (bispecific antibody) EVQLVESGGGVVQPGGSLRLSCAASGIIFSINAMGWYRQAPGKQRELVADIFPFGSTEYADSVKGRFTISRDNAKNTVYLQMNSLRPEDTALYYCHSYDPRGDDYWGQGTLVTVSSGGGGSGGGSEVQLVESGGGVVQPGGSLRLSCAASGFTLAYYAIGWFRQAPGKEREGVSCISGSVGTTYYADSVKGRFTISRDNAKNTVYLQMNSLRPEDTALYYCVRSSWFDCGVQGRDLGNEYDYRGQGTLVTVSSGGGGSGGGSEVQLVESGGGVVQPGGSLRLSCAASGFTFRSFGMSWVRQAPGKGPEWVSSISGSGSDTLYADSVKGRFTISRDNSKNTLYLQMNSLRPEDTALYYCTIGGSLSRSSQGTLVTVSSGGGGSGGGSEVQLVESGGGVVQPGGSLRLSCTASGFTFSTADMGWFRQAPGKGREFVARISGIDGTTYYDEPVKGRFTISRDNSKNTVYLQMNSLRPEDTALYYCRSPRYADQWSAYDYWGQGTLVKVSS |  |  |  |  |  |  | 10 ratio | 2.25 nM | 0.16 nM | 3.3 ratio |
